Assay [1] deals with T1, CEACAM3 (recombinant protein) (human, UniProt P40198 35-155, limits assumed).
T1 construct: construct not described
T1 sequence (looked up): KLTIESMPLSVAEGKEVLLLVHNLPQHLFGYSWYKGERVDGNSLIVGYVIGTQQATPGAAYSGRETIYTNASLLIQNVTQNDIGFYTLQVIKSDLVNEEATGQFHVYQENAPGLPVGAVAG
As to the kind of experiment: SPR single-cycle kinetics, antibody captured on Protein A, CEACAM-3 injected at three rising concentrations. Here is the method: (§1) In order to assess the binding of the humanized, affinity matured reformatted lead IgGs, single-cycle kinetics analysis was performed on crude supernatants using a Biacore T200 running Biacore T200 Control Software V2.0.1 and Biacore T200 Evaluation Software V3.0. Antibodies were diluted in HBS-P+ to a final concentration of 0.5 μg/ml. At the start of each cycle, antibodies were loaded onto Fc2, Fc3 and Fc4 of the Protein A chip. IgGs were captured at a flow rate of 10 μl/min to give an immobilisation level (RL) of ˜100 RU (a level calculated to obtain a Rₘₐₓ of ˜50-150 RU once the analyte is bound). The surface was then allowed to stabilize. Single-cycle kinetics data was obtained with CEACAM1 as the analyte at a flow rate of 80 μl/min to minimize any potential mass transfer effects. Multiple repeats with the parent (VH1/Vκ8 S29A) antibody were performed to check the stability of the surface and analyte over the kinetic cycles. The signal from the reference channel Fc1 (no antibody) was subtracted from that of Fc2, Fc3 and Fc4 to correct for differences in non-specific binding to the reference surface. A three point, two-fold dilution range from 70 nM to 280 nM CEACAM1 without regeneration between each concentration was used. The signal from each antibody blank run (no CEACAM1) was subtracted to correct for differences in surface stability. The association phase for the three injections of increasing concentrations of CEACAM1 was monitored for 80 seconds each time and a single dissociation phase was measured for 150 seconds following the last injection of CEACAM1. Regeneration of the Protein A surface was conducted using two injections of 10 mM glycine-HCL pH 1.5 followed by a stabilization period of 250 seconds.
To further assess the binding selectivity of CEACAM1 antibodies VH0/Vκ0, CP08H03/Vκ8 S29A, CP08H03/CP08F05 CEACAM1 over other proteins, binding affinities to CEACAM1, CEACAM3, CEACAM5, and CEACAM6 were compared using single-cycle kinetics analysis performed as described above. Single cycle kinetics was conducted using CEACAM concentrations from 280 nM to 70 nM.

Assay [2] deals with T2, CEACAM5 on transfected HeLa cells (human, UniProt P06731 35-685).
T2 construct: whole, on cells; also called HeLa-CEACAM5; HeLa C5
T2 sequence (looked up): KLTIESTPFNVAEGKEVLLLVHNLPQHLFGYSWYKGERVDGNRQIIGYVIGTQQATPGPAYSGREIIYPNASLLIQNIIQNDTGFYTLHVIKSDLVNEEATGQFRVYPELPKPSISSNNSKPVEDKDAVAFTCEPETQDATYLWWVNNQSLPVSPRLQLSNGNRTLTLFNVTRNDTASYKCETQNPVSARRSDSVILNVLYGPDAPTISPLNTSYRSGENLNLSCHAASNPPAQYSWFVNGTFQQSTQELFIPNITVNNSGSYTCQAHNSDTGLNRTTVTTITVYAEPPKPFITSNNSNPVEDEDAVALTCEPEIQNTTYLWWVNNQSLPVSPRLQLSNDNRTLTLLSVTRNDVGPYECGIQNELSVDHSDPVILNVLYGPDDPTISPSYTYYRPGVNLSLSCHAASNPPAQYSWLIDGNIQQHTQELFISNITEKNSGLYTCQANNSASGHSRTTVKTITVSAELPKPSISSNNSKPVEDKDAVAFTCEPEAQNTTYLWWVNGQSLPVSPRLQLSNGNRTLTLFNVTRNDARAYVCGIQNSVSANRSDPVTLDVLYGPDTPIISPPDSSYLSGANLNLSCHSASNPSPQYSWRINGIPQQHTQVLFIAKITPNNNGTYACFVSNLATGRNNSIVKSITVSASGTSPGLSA
As to the kind of experiment: flow cytometry, HeLa-CEACAM5 transfectants, % staining, stacked bars. The text has this: (§2) FIG. 11 illustrates the binding selectivity of different affinity-matured CEACAM1 antibodies. […] HELA cells were transfected with vector alone (HeLa-Neo) or vectors expressing CEACAM1, CEACAM3, CEACAM5, or CEACAM6, respectively, and stained with the indicated antibodies. […] MOPC=mouse IgG1 control antibody. Mouse antibodies as positive control for transfected CEACAM isoforms: Col-1=CEACAM3 and CEACAM5 antibody. 9A6=CEACAM6 antibody. T84.1=CEACAM cross-reactive antibody and T84.66=CEACAM5 antibody. Only 2nd FITC=No primary antibody, only secondary FITC conjugated antibody. […] Data for affinity-matured antibodies 9B3_8H3/Vκ8 S29A, 8H3_9B3/CP08_E05, and 8H3_9C2/CPO08_F05, as well as data for CEACAM8 antibody 80H3 were omitted from the FIG. due to an unusually high background signal.

Assay [3] deals with T3, CEACAM3 on transfected HeLa cells (human, UniProt P40198 35-252).
T3 construct: whole, on cells; also called HeLa-CEACAM3; HeLa C3
T3 sequence (looked up): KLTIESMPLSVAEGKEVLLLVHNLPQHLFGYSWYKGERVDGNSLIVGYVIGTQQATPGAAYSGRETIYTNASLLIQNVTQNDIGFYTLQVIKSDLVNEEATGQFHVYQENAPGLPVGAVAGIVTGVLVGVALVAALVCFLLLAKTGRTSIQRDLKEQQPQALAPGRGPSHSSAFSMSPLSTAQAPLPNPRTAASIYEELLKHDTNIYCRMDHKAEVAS
As to the kind of experiment: flow cytometry, HeLa-CEACAM3 transfectants, % staining, stacked bars.
Source text: as §2

The target of assay [4] is T4, CEACAM6 on transfected HeLa cells (human, UniProt P40199 35-320).
T4 construct: whole, on cells; also called HeLa-CEACAM6; HeLa C6
T4 sequence (looked up): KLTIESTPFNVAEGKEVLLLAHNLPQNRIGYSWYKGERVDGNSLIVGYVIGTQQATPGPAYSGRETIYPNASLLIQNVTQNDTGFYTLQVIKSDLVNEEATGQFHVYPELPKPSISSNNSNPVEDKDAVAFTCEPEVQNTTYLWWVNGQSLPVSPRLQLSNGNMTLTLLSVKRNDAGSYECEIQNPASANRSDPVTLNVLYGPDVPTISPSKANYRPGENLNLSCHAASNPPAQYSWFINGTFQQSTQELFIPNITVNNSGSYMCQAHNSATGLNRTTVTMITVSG
As to the kind of experiment: flow cytometry, HeLa-CEACAM6 transfectants, % staining, stacked bars.
Source text: as §2
On the technique in general: In flow cytometry, cells or beads pass a laser one at a time.

The target of assay [5] is T5, CEACAM5 (recombinant protein) (human, UniProt P06731 35-685).
T5 construct: construct not described
T5 sequence (looked up): T2 sequence (looked up)
As to the kind of experiment: SPR single-cycle kinetics, antibody captured on Protein A, CEACAM-5 injected at three rising concentrations [Cont.]. The method, then:
as §1, with “A three point, two-fold dilution range from 70 nM to 280 nM CEACAM1 without regeneration between each concentration was used. The signal from each antibody blank run (no CEACAM1) was subtracted to correct for differences in surface stability.” left out, “Regeneration of the Protein A surface was conducted using two injections of 10 mM glycine-HCL pH 1.5 followed by a stabilization period of 250 seconds.” left out

Positions count from the first letter of the chain named. Names and notes keep the numbering of the source.

B1: chimeric antibody VH0/Vκ0 (antibody, IgG4, V domains shown)
VH: EVQLVESGGDLVKPGGSLKLACAASGFIFSSHGMSWVRQTPDKRLEWVATISSGGTYTYYPDSVKGRFTISRDNDKNTLYLQMNSLKSEDTAMYYCARHDFDYDAAWFAYWGQGTLVTVSS
VL: QIVLTQSPALMSASPGVKVTMTCSANSSVSYMYWYRQKPRSSPKPWIYLTSNLASGVPARFSGSGSGTSYSLTISSMEAEDAATYYCQQWSSNPPTFGSGTKLEIK
notes: IgG4 (S241P), kappa; also called VH0/Vκ0 (control); Chimeric VH0/Vκ0
Take B1: in assay [1], the binding result is “no binding”.

B2: VH1/Vκ8 S29A (antibody, IgG4, V domains shown)
VH: B1 VH with V5L, D10G, K13Q, K19R, A21S, T40A, D42G, R44G, D75S, S88A
VL: EIVLTQSPATLSLSPGERATLSCRANSAVSYMYWYQQKPGQAPRPWIYLTSNRATGVPARFSGSGSGTDYTLTISSLEPEDFAVYYCQQWSSNPPTFGQGTKLEIK
notes: IgG4 (S241P), kappa; also called Parent; Parent (VH1/Vκ8 S29A)
Regarding B2, the binding result in assay [2], in assay [3] and in assay [4] was “no binding” throughout.

B3: CP08H03/CP08F05 (antibody, V domains shown)
VH: EVQLLESGGGLVQPGGSLRLSCAASGFIFSSHGMSWVRQAPGKGLEWVATISSGGTYTYYPDSVKGRFTISRDNSKNTLYLQMNSLKAEDTAMYYCARHDFDYFPYWFAHWGQGTLVTVSS
VL: B2 VL with S91T
notes: IgG4 (S241P), kappa
As to B3, the binding result in assay [5], in assay [2], in assay [3], in assay [4] and in assay [1] was “no binding” in each case.

B4: CP08H03/Vκ8 S29A (antibody, IgG4, V domains shown)
VH: B3 VH
VL: B2 VL
notes: IgG4 (S241P), kappa; also called CP08_H03/Parent VL; CP08_H03/Parental
B4: the binding result in assay [5] and in assay [1] was “no binding” throughout.

The values above are taken from patent US20250074980A1 (BRIGHAM AND WOMEN S HOSPITAL, published 2025).
